In one test the target is human GLP-1 receptor (human, UniProt P43220). The test can be described thus: cell-based or functional assay.
The target of a further test is human glucagon receptor (human, UniProt P47871). As to the kind of experiment: cell-based or functional assay.

Starred links: 1 amine or outer side, 2 acyl side, 3 side chain; linkers in the order of their positions; H or OH if unused. Non-standard residues stand in square brackets, D forms with d. Groups on a side chain read outwards from the residue. No end group written: not given here. *: point of attachment. C20 diacid = O=C(O)CCCCCCCCCCCCCCCCCCC(=O)*; C18 diacid = O=C(O)CCCCCCCCCCCCCCCCC(=O)*; γGlu = O=C(O)[C@H](CCC(=O)[*:2])N[*:1]; αMeF = C[C@](N)(Cc1ccccc1)C(=O)O; AEEA = NCCOCCOCC(=O)O; Aib = CC(C)(N)C(=O)O

B1: Peptide 476 (peptide)
peptide: H[Aib]QGTFTSDVSK[αMeF]LDTK([AEEA-AEEA-γGlu-C18 diacid])RAQDFVRWLLA[Aib]G-NH2
modifications: N-terminus assumed
SMILES: CC(C)C[C@H](NC(=O)[C@H](CC(C)C)NC(=O)[C@H](Cc1c[nH]c2ccccc12)NC(=O)[C@H](CCCNC(=N)N)NC(=O)[C@@H](NC(=O)[C@H](Cc1ccccc1)NC(=O)[C@H](CC(=O)O)NC(=O)[C@H](CCC(N)=O)NC(=O)[C@H](C)NC(=O)[C@H](CCCNC(=N)N)NC(=O)[C@H](CCCCNC(=O)COCCOCCNC(=O)COCCOCCNC(=O)CC[C@H](NC(=O)CCCCCCCCCCCCCCCCC(=O)O)C(=O)O)NC(=O)[C@@H](NC(=O)[C@H](CC(=O)O)NC(=O)[C@H](CC(C)C)NC(=O)[C@](C)(Cc1ccccc1)NC(=O)[C@H](CCCCN)NC(=O)[C@H](CO)NC(=O)[C@@H](NC(=O)[C@H](CC(=O)O)NC(=O)[C@H](CO)NC(=O)[C@@H](NC(=O)[C@H](Cc1ccccc1)NC(=O)[C@@H](NC(=O)CNC(=O)[C@H](CCC(N)=O)NC(=O)C(C)(C)NC(=O)[C@@H](N)Cc1c[nH]cn1)[C@@H](C)O)[C@@H](C)O)C(C)C)[C@@H](C)O)C(C)C)C(=O)N[C@@H](C)C(=O)NC(C)(C)C(=O)NCC(N)=O
For the molecule B1, the “cAMP production EC50” value with human GLP-1 receptor is 57.3 pM; with human glucagon receptor it was 104 pM.

B2: Peptide 475 (peptide)
peptide: H[Aib]QGTFTSDVSK[αMeF]LDTK([AEEA-AEEA-γGlu-C20 diacid])RARDFVQWLLA[Aib]G-NH2
modifications: N-terminus assumed
SMILES: CC(C)C[C@H](NC(=O)[C@H](CC(C)C)NC(=O)[C@H](Cc1c[nH]c2ccccc12)NC(=O)[C@H](CCC(N)=O)NC(=O)[C@@H](NC(=O)[C@H](Cc1ccccc1)NC(=O)[C@H](CC(=O)O)NC(=O)[C@H](CCCNC(=N)N)NC(=O)[C@H](C)NC(=O)[C@H](CCCNC(=N)N)NC(=O)[C@H](CCCCNC(=O)COCCOCCNC(=O)COCCOCCNC(=O)CC[C@H](NC(=O)CCCCCCCCCCCCCCCCCCC(=O)O)C(=O)O)NC(=O)[C@@H](NC(=O)[C@H](CC(=O)O)NC(=O)[C@H](CC(C)C)NC(=O)[C@](C)(Cc1ccccc1)NC(=O)[C@H](CCCCN)NC(=O)[C@H](CO)NC(=O)[C@@H](NC(=O)[C@H](CC(=O)O)NC(=O)[C@H](CO)NC(=O)[C@@H](NC(=O)[C@H](Cc1ccccc1)NC(=O)[C@@H](NC(=O)CNC(=O)[C@H](CCC(N)=O)NC(=O)C(C)(C)NC(=O)[C@@H](N)Cc1c[nH]cn1)[C@@H](C)O)[C@@H](C)O)C(C)C)[C@@H](C)O)C(C)C)C(=O)N[C@@H](C)C(=O)NC(C)(C)C(=O)NCC(N)=O
Take B2: the “cAMP production EC50” value with human GLP-1 receptor was 6.75 pM; with human glucagon receptor, 61.5 pM.

B3: Peptide 479 (peptide)
peptide: H[Aib]QGTFTSDVSK[αMeF]LDTK([AEEA-AEEA-γGlu-C20 diacid])RAQDFVRWLLE[Aib]K-NH2
modifications: N-terminus assumed
SMILES: CC(C)C[C@H](NC(=O)[C@H](Cc1c[nH]c2ccccc12)NC(=O)[C@H](CCCNC(=N)N)NC(=O)[C@@H](NC(=O)[C@H](Cc1ccccc1)NC(=O)[C@H](CC(=O)O)NC(=O)[C@H](CCC(N)=O)NC(=O)[C@H](C)NC(=O)[C@H](CCCNC(=N)N)NC(=O)[C@H](CCCCNC(=O)COCCOCCNC(=O)COCCOCCNC(=O)CC[C@H](NC(=O)CCCCCCCCCCCCCCCCCCC(=O)O)C(=O)O)NC(=O)[C@@H](NC(=O)[C@H](CC(=O)O)NC(=O)[C@H](CC(C)C)NC(=O)[C@](C)(Cc1ccccc1)NC(=O)[C@H](CCCCN)NC(=O)[C@H](CO)NC(=O)[C@@H](NC(=O)[C@H](CC(=O)O)NC(=O)[C@H](CO)NC(=O)[C@@H](NC(=O)[C@H](Cc1ccccc1)NC(=O)[C@@H](NC(=O)CNC(=O)[C@H](CCC(N)=O)NC(=O)C(C)(C)NC(=O)[C@@H](N)Cc1c[nH]cn1)[C@@H](C)O)[C@@H](C)O)C(C)C)[C@@H](C)O)C(C)C)C(=O)N[C@@H](CC(C)C)C(=O)N[C@@H](CCC(=O)O)C(=O)NC(C)(C)C(=O)N[C@@H](CCCCN)C(N)=O
As to B3, the “cAMP production EC50” value was determined as 34.2 pM with human GLP-1 receptor and 207 pM with human glucagon receptor.

B4: Peptide 477 (peptide)
peptide: H[Aib]QGTFTSDVSK[αMeF]LDTK([AEEA-AEEA-γGlu-C20 diacid])RAQDFVRWLLA[Aib]G-NH2
modifications: N-terminus assumed
SMILES: CC(C)C[C@H](NC(=O)[C@H](CC(C)C)NC(=O)[C@H](Cc1c[nH]c2ccccc12)NC(=O)[C@H](CCCNC(=N)N)NC(=O)[C@@H](NC(=O)[C@H](Cc1ccccc1)NC(=O)[C@H](CC(=O)O)NC(=O)[C@H](CCC(N)=O)NC(=O)[C@H](C)NC(=O)[C@H](CCCNC(=N)N)NC(=O)[C@H](CCCCNC(=O)COCCOCCNC(=O)COCCOCCNC(=O)CC[C@H](NC(=O)CCCCCCCCCCCCCCCCCCC(=O)O)C(=O)O)NC(=O)[C@@H](NC(=O)[C@H](CC(=O)O)NC(=O)[C@H](CC(C)C)NC(=O)[C@](C)(Cc1ccccc1)NC(=O)[C@H](CCCCN)NC(=O)[C@H](CO)NC(=O)[C@@H](NC(=O)[C@H](CC(=O)O)NC(=O)[C@H](CO)NC(=O)[C@@H](NC(=O)[C@H](Cc1ccccc1)NC(=O)[C@@H](NC(=O)CNC(=O)[C@H](CCC(N)=O)NC(=O)C(C)(C)NC(=O)[C@@H](N)Cc1c[nH]cn1)[C@@H](C)O)[C@@H](C)O)C(C)C)[C@@H](C)O)C(C)C)C(=O)N[C@@H](C)C(=O)NC(C)(C)C(=O)NCC(N)=O
With B4, the “cAMP production EC50” value in the test with human GLP-1 receptor stood at 54.1 pM; with human glucagon receptor, 117 pM.

B5: Peptide 473 (peptide)
peptide: H[Aib]QGTFTSDVSK[αMeF]LDRK([AEEA-AEEA-γGlu-C18 diacid])RARDFVQWLL[Aib]E-NH2
modifications: N-terminus assumed
SMILES: CC(C)C[C@H](NC(=O)[C@H](Cc1c[nH]c2ccccc12)NC(=O)[C@H](CCC(N)=O)NC(=O)[C@@H](NC(=O)[C@H](Cc1ccccc1)NC(=O)[C@H](CC(=O)O)NC(=O)[C@H](CCCNC(=N)N)NC(=O)[C@H](C)NC(=O)[C@H](CCCNC(=N)N)NC(=O)[C@H](CCCCNC(=O)COCCOCCNC(=O)COCCOCCNC(=O)CC[C@H](NC(=O)CCCCCCCCCCCCCCCCC(=O)O)C(=O)O)NC(=O)[C@H](CCCNC(=N)N)NC(=O)[C@H](CC(=O)O)NC(=O)[C@H](CC(C)C)NC(=O)[C@](C)(Cc1ccccc1)NC(=O)[C@H](CCCCN)NC(=O)[C@H](CO)NC(=O)[C@@H](NC(=O)[C@H](CC(=O)O)NC(=O)[C@H](CO)NC(=O)[C@@H](NC(=O)[C@H](Cc1ccccc1)NC(=O)[C@@H](NC(=O)CNC(=O)[C@H](CCC(N)=O)NC(=O)C(C)(C)NC(=O)[C@@H](N)Cc1c[nH]cn1)[C@@H](C)O)[C@@H](C)O)C(C)C)C(C)C)C(=O)N[C@@H](CC(C)C)C(=O)NC(C)(C)C(=O)N[C@@H](CCC(=O)O)C(N)=O
As for B5, the “cAMP production EC50” value in the test with human GLP-1 receptor was 11.5 pM; in the test with human glucagon receptor, 14.1 pM.

B6: Peptide 474 (peptide)
peptide: H[Aib]QGTFTSDVSK[αMeF]LDTK([AEEA-AEEA-γGlu-C18 diacid])RARDFVQWLLA[Aib]G-NH2
modifications: N-terminus assumed
SMILES: CC(C)C[C@H](NC(=O)[C@H](CC(C)C)NC(=O)[C@H](Cc1c[nH]c2ccccc12)NC(=O)[C@H](CCC(N)=O)NC(=O)[C@@H](NC(=O)[C@H](Cc1ccccc1)NC(=O)[C@H](CC(=O)O)NC(=O)[C@H](CCCNC(=N)N)NC(=O)[C@H](C)NC(=O)[C@H](CCCNC(=N)N)NC(=O)[C@H](CCCCNC(=O)COCCOCCNC(=O)COCCOCCNC(=O)CC[C@H](NC(=O)CCCCCCCCCCCCCCCCC(=O)O)C(=O)O)NC(=O)[C@@H](NC(=O)[C@H](CC(=O)O)NC(=O)[C@H](CC(C)C)NC(=O)[C@](C)(Cc1ccccc1)NC(=O)[C@H](CCCCN)NC(=O)[C@H](CO)NC(=O)[C@@H](NC(=O)[C@H](CC(=O)O)NC(=O)[C@H](CO)NC(=O)[C@@H](NC(=O)[C@H](Cc1ccccc1)NC(=O)[C@@H](NC(=O)CNC(=O)[C@H](CCC(N)=O)NC(=O)C(C)(C)NC(=O)[C@@H](N)Cc1c[nH]cn1)[C@@H](C)O)[C@@H](C)O)C(C)C)[C@@H](C)O)C(C)C)C(=O)N[C@@H](C)C(=O)NC(C)(C)C(=O)NCC(N)=O
As for B6, the “cAMP production EC50” value with human GLP-1 receptor was 8.04 pM; in the test with human glucagon receptor it was 56.9 pM.

B7: Peptide 478 (peptide)
peptide: H[Aib]QGTFTSDVSK[αMeF]LDTK([AEEA-AEEA-γGlu-C18 diacid])RAQDFVRWLLE[Aib]K-NH2
modifications: N-terminus assumed
SMILES: CC(C)C[C@H](NC(=O)[C@H](Cc1c[nH]c2ccccc12)NC(=O)[C@H](CCCNC(=N)N)NC(=O)[C@@H](NC(=O)[C@H](Cc1ccccc1)NC(=O)[C@H](CC(=O)O)NC(=O)[C@H](CCC(N)=O)NC(=O)[C@H](C)NC(=O)[C@H](CCCNC(=N)N)NC(=O)[C@H](CCCCNC(=O)COCCOCCNC(=O)COCCOCCNC(=O)CC[C@H](NC(=O)CCCCCCCCCCCCCCCCC(=O)O)C(=O)O)NC(=O)[C@@H](NC(=O)[C@H](CC(=O)O)NC(=O)[C@H](CC(C)C)NC(=O)[C@](C)(Cc1ccccc1)NC(=O)[C@H](CCCCN)NC(=O)[C@H](CO)NC(=O)[C@@H](NC(=O)[C@H](CC(=O)O)NC(=O)[C@H](CO)NC(=O)[C@@H](NC(=O)[C@H](Cc1ccccc1)NC(=O)[C@@H](NC(=O)CNC(=O)[C@H](CCC(N)=O)NC(=O)C(C)(C)NC(=O)[C@@H](N)Cc1c[nH]cn1)[C@@H](C)O)[C@@H](C)O)C(C)C)[C@@H](C)O)C(C)C)C(=O)N[C@@H](CC(C)C)C(=O)N[C@@H](CCC(=O)O)C(=O)NC(C)(C)C(=O)N[C@@H](CCCCN)C(N)=O
Take B7: the “cAMP production EC50” value was 9.18 pM in the test with human GLP-1 receptor and 190 pM with human glucagon receptor.

The record behind these values is patent US12630600B2 (MEDIMMUNE LIMITED, priority 2022, dated 2026).
